Reference: patent US20230365700A1 (BIOSION, published 2023)
Read-outs that look alike come from different tables or passages of the source. One block for each binder: values may come before it.

Key:
[1] = target: T1, full length human CD40 (uniprot #P25942-1, SEQ ID NO: 30) on 293T cells (human, UniProt P25942 21-277); assay: flow cytometry (FACS) on 293T-CD40 cells expressing full length human CD40; MFI
Description: (§1) 2×10⁵ cells were incubated in each well of 96 well-plates in 100 μl anti-CD40 antibodies of the disclosure or controls of various concentrations (starting at 80 nM with a 4-fold serial dilution) in FACS buffer for 40 minutes on ice. […] Following an incubation of 40 minutes at 4° C. in dark, cells were washed three times and resuspended in FACS buffer. Fluorescence was measured using a Becton Dickinson FACS Canto II-HTS equipment and plotted against antibody concentration. Data was analyzed using Graphpad Prism software and EC₅₀ values were reported.

[2] = target: T2, human CD40-Fc protein (amino acid residue 21-193 of SEQ ID NO: 30 linked to N-terminus of amino acid residue … (human, biotin-labeled in the capture ELISA and the benchmark blocking ELISA; unlabeled when coated in the ligand blocking ELISA); assay: capture ELISA: antibody captured on goat anti-mouse IgG F(ab')2-specific coat, detected with biotin-labeled human CD40-Fc (1.15 nM) and streptavidin-HRP; OD(450-630)
T2 construct: also called biotin-labeled human CD40-Fc; human CD40-Fc-biotin
Description: (§2) Plates were washed once with wash buffer (PBS+0.05% v/v Tween-20, PBST) and then blocked with 200 μl/well blocking buffer (5% w/v non-fatty milk in PBST) for 2 hours at 37° C. Plates were washed 4 times and incubated with 100 μl/well serially diluted anti-CD40 antibodies of the disclosure, BM1, BM2 and negative control hIgG (human immunoglobulin (pH4) for intravenous injection, Hualan Biological Engineering Inc.) (5-fold serial dilution in 2.5% w/v non-fatty milk in PBST, starting at 66.7 nM) for 40 minutes at 37° C., and then washed 4 times again. […] After a final wash, plates were incubated with 100 μl/well ELISA substrate TMB (Innoreagents, Cat #TMB-S-002) at room temperature. The reaction was stopped in 3-10 minutes with 50 μl/well 1M H₂SO₄, and the absorbance of each well was read on a microplate reader using dual wavelength mode with 450 nm for TMB and 630 nm as the reference wavelength, then the OD (450-630) values were plotted against antibody concentration. Data was analyzed using Graphpad Prism software and EC₅₀ values were reported.

[3] = target: T2, human CD40-Fc protein (amino acid …); assay: competitive ELISA: antibody pre-incubated with biotin-labeled human CD40-Fc (0.23 nM), mixture added to coated BM2; competitor: BM2; OD(450-630); only partial: OD falls from about 1.13 to a plateau of about 0.77
Description: (§3) The abilities of the anti-CD40 antibodies of the disclosure to block Benchmark-human CD40 binding was measured in a competitive ELISA assay. Briefly, the BM2 antibody was coated on 96-well micro plates at 1 μg/mL in PBS, 100 μl per well, and incubated overnight at 4° C. The next day, plates were washed once with wash buffer, and blocked with blocking buffer (5% w/v non-fatty milk in PBST) for 2 hours at 37° C. While blocking, the anti-CD40 antibodies of the disclosure or controls were diluted with biotin labeled human CD40-Fc protein (amino acid residue 21-193 of SEQ ID NO: 30 linked to N-terminus of amino acid residue 99-330 of SEQ ID NO.:28, 0.23 nM in 2.5% v/v non-fatty milk in PBST), starting at 66.7 nM with a 5-fold serial dilution, and incubated at room temperature for 40 minutes. After plate washing 4 times, the antibody/human CD40-Fc-biotin mixtures were added to BM2 coated plates, 100 μl/well. After incubation at 37° C. for 40 minutes, plates were washed 4 times again using wash buffer. […] Finally, TMB was added and the reaction was stopped using 1M H2504, and the absorbance was read on a microplate reader using dual wavelength mode with 450 nm for TMB and 630 nm as the reference wavelength, then the OD (450-630) values were plotted against antibody concentration. Data was analyzed using Graphpad Prism software and IC₅₀ values were reported.

[4] = target: T1, full length human CD40 (uniprot …); assay: flow cytometry (FACS) on 293T-CD40 cells expressing full length human CD40; MFI; remark: listed apart in the source
Description: as §1

[5] = target: T2, human CD40-Fc protein (amino acid …); assay: competitive ELISA: antibody pre-incubated with biotin-labeled human CD40-Fc (0.23 nM), mixture added to coated BM2; competitor: BM2; OD(450-630)
Description: as §3

[6] = target: T2, human CD40-Fc protein (amino acid …); assay: competitive ELISA: antibody added to coated human CD40-Fc, then biotin-labeled human CD40L-his (95 ng/mL); blocked ligand: CD40L-his; OD(450-630)
Description: (§4) The abilities of anti-CD40 antibodies to block CD40-CD40L binding were measured in a competitive ELISA assay. Briefly, 100 μl human CD40-Fc protein (amino acid residue 21-193 of SEQ ID NO: 30 linked to N-terminus of amino acid residue 99-330 of SEQ ID NO.:28) was coated on 96-well micro plates at 2 μg/mL in coating buffer (carbonate/bicarbonate buffer) and incubated overnight at 4° C. The next day, plates were washed once with wash buffer (PBS+0.05% v/v Tween-20, PBST), and blocked with 5% w/v non-fatty milk in PBST for 2 hours at 37° C. Plates were then washed 4 times using wash buffer.
Serially diluted anti-CD40 antibodies of the disclosure or controls (starting at 200 nM with a five-fold serial dilution) in PBST with 2.5% w/v non-fatty milk were added to the CD40-Fc bound plates, 100 μl per well, and incubated at 37° C. for 40 minutes. […] Finally, TMB was added and the reaction was stopped using 1M H2504, and the absorbance of each well was read on a microplate reader using dual wavelength mode with 450 nm for TMB and 630 nm as the reference wavelength, then the OD (450-630) values were plotted against antibody concentration. Data was analyzed using Graphpad Prism software and IC₅₀ values were reported.

[7] = target: T2, human CD40-Fc protein (amino acid …); assay: as above; remark: listed apart in the source
Description: as §4
Serially diluted anti-CD40 antibodies of the disclosure or controls (starting at 200 nM with a five-fold serial dilution) in PBST with 2.5% w/v non-fatty milk were added to the CD40-Fc bound plates, 100 μl per well, and incubated at 37° C. for 40 minutes. Plates were washed 4 times again using wash buffer, and then added and incubated for 40 minutes at 37° C. with 100 μl/well 95 ng/mL biotin-labeled human CD40L-his protein (Sino biological Inc., Cat #10239-H08E). Plates were washed again using wash buffer. Thereafter, the plates were added with 100 μl/well of streptavidin conjugated HRP (1:10000 dilution in PBST buffer, Jackson Immunoresearch, Cat #016-030-084) and incubated for 40 minutes at 37° C. Plates were washed again using wash buffer. Finally, TMB was added and the reaction was stopped using 1M H2504, and the absorbance of each well was read on a microplate reader using dual wavelength mode with 450 nm for TMB and 630 nm as the reference wavelength, then the OD (450-630) values were plotted against antibody concentration. Data was analyzed using Graphpad Prism software and IC₅₀ values were reported.

[8] = target: T2, human CD40-Fc protein (amino acid …); assay: capture ELISA: antibody captured on goat anti-mouse IgG F(ab')2-specific coat, detected with biotin-labeled human CD40-Fc (1.15 nM) and streptavidin-HRP; OD(450-630); remark: listed apart in the source
Description: as §2

[9] = target: T2, human CD40-Fc protein (amino acid …); assay: competitive ELISA: antibody pre-incubated with biotin-labeled human CD40-Fc (0.23 nM), mixture added to coated BM2; competitor: BM2 (self-competition); OD(450-630)
Description: as §3

[10] = target: T2, human CD40-Fc protein (amino acid …); assay: as above; remark: listed apart in the source
Description: as §3

[11] = target: T2, human CD40-Fc protein (amino acid …); assay: competitive ELISA: antibody pre-incubated with biotin-labeled human CD40-Fc (0.23 nM), mixture added to coated BM2; competitor: BM2; OD(450-630); only partial: OD falls from about 1.13 to a plateau of about 0.92
Description: as §3

[12] = target: T2, human CD40-Fc protein (amino acid …); assay: capture ELISA: antibody captured on goat anti-mouse IgG F(ab')2-specific coat, detected with biotin-labeled human CD40-Fc (1.15 nM) and streptavidin-HRP; OD(450-630); the curve reaches only OD about 0.9 at the highest concentration, no plateau
Description: as §2

EC50 [1]: 1.71 nM
EC50 [2]: 0.0906 nM
IC50 [3]: 0.18 nM
B1: mouse anti-CD40 monoclonal antibody 1A3 (antibody, V domains shown)
VH: EVQLQQSGPELVKTGASVKISCKASGYSFIGYYLHWVKQSLGKGLEWIGYISCHDGTIIYNQKFKGKATFTLDTSSSTAYMQFSSLTSEDSAVYFCARFLNYYGSNYAMDYWGQGTSVTVSS
VL: DIVMTQSHKFMSTSVGDRVSITCKASQDVGPAVAWYQQKPGQSPKLLIYWASTRHTGVPDRFTGSGYGTDFTLTINNVQSEDLADYFCQQYFTYPLTFGGGTKLEIK
notes: Hybridoma-derived mouse mAb; also called Clone 1A3

EC50 [1]: 0.975 nM
EC50 [4]: 2.46 nM
IC50 [5]: 0.234 nM
IC50 [6]: 6.95 nM
IC50 [7]: 7.91 nM
EC50 [2]: 0.236 nM
EC50 [8]: 0.248 nM
B2: BM1 (Dacetuzumab) (antibody, human IgG1, kappa, V domains shown)
VH: EVQLVESGGGLVQPGGSLRLSCAASGYSFTGYYIHWVRQAPGKGLEWVARVIPNAGGTSYNQKFKGRFTLSVDNSKNTAYLQMNSLRAEDTAVYYCAREGIYWWGQGTLVTVSS
VL: DIQMTQSPSSLSASVGDRVTITCRSSQSLVHSNGNTFLHWYQQKPGKAPKLLIYTVSNRFSGVPSRFSGSGSGTDFTLTISSLQPEDFATYFCSQTTHVPWTFGQGTKVEIKR
notes: Benchmark antibody, made in house; also called CD40-BM1; benchmark

EC50 [4]: 1.95 nM
IC50 [7]: 7.83 nM
EC50 [8]: 0.0774 nM
B3: mouse anti-CD40 monoclonal antibody C1H1 (antibody, V domains shown)
VH: EVKLVESGGGLVKPGASLKLSCAASGFTFSNYGISWVRQTSDKRLEWVASISSGGDNTYYPDNVKGRFTISRENAKNTLYLQMSSLKSEDTALYYCARAGEKAMDYWGQGTSVTVSS
VL: DIVLTQSPVTLSVTPGDSVSLSCRASQTINNNLHWYQQKSHESPRLLIKYASQSISGIPSRFSGSGSGTDFTLSINSVETEDFGIYFCQQFSSWPLTFGAGTKLELK
notes: Hybridoma-derived mouse mAb purified on Protein A; also called mouse C1H1; Clone C1H1

EC50 [1]: 2.01 nM
EC50 [4]: 3.26 nM
IC50 [6]: 9 nM
IC50 [7]: 9.7 nM
IC50 [9]: 0.804 nM
IC50 [10]: 0.678 nM
EC50 [2]: 0.637 nM
EC50 [8]: 0.28 nM
B4: BM2 (Selicrelumab) (antibody, human IgG2, kappa, V domains shown)
VH: not shown
VL: DIQMTQSPSSVSASVGDRVTITCRASQGIYSWLAWYQQKPGKAPNLLIYTASTLQSGVPSRFSGSGSGTDFTLTISSLQPEDFATYYCQQANIFPLTFGGGTKVEIKR
notes: Benchmark antibody, made in house; also called CD40-BM2; benchmark

EC50 [1]: 1.79 nM
IC50 [11]: 4.84 nM
EC50 [12]: 10.9 nM
B5: mouse anti-CD40 monoclonal antibody 1D1 (antibody, V domains shown)
VH: EVQLQQSGPELVKPGASVKMSCKASGYTFTDYVMHWVKQKPGQGLECIGYINPYNDGTTYNEKFKGKATLTSDKSSNAAYLELSSLTSEDSAVYYCARGFLRESWFGYWGQGTLVTVSA
VL: DVLLTQTPLSLPVSLGDQASISCRSSQNIVHSNGNTYLDWYLQKPGQSPKLLIYKVSNRFSGVPDRFSGSGSGTDFTLKISRVEAEDLGVYYCFQGSHVPPTFGGGTKLELK
notes: Hybridoma-derived mouse mAb; also called Clone 1D1
